The sequences below were run on Escherichia coli TOP10 (assay: shrunken log2 fold change of peptide-encoding DNA abundance (4.5 h post-induction vs induction); higher = less antimicrobial activity (less host growth inhibition)). Details: time post-induction: 4.5 h; library: site-saturation at positions 5, 18, 19, 20.
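Further: peptides expressed intracellularly from a pBAD plasmid library in pooled LB shake-flask culture, induced with 0.3% L-arabinose, DNA abundance read by NGS, three biological replicates, DESeq2 with apeglm shrinkage.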

Sequence	shrunken log2 fold change
RRIRRRPPRLPRPRPRPIKTPRP	0.00866
RRIRMRPPRLPRPRPRPYCWPRP	-0.134
RRIRSRPPRLPRPRPRPCCKPRP	0.0569
RRIRMRPPRLPRPRPRPMMQPRP	-0.00112
RRIRHRPPRLPRPRPRPPESPRP	0.211
RRIRTRPPRLPRPRPRPVLEPRP	0.179
RRIRFRPPRLPRPRPRPYEDPRP	-0.951
RRIRARPPRLPRPRPRPDPSPRP	0.508
RRIRLRPPRLPRPRPRPNVPPRP	-0.213
RRIRDRPPRLPRPRPRPAFQPRP	0.201
RRIRCRPPRLPRPRPRPMLDPRP	0.0729
RRIRIRPPRLPRPRPRPTDWPRP	0.0724
RRIRLRPPRLPRPRPRPAAFPRP	0.184
RRIRSRPPRLPRPRPRPNTNPRP	-0.0164
RRIRHRPPRLPRPRPRPMAAPRP	0.53
RRIRVRPPRLPRPRPRPIAVPRP	0.0926
RRIRERPPRLPRPRPRPQKAPRP	-0.0836
RRIRRRPPRLPRPRPRPTTHPRP	0.306
RRIRKRPPRLPRPRPRPLEIPRP	0.281
RRIRCRPPRLPRPRPRPATYPRP	-0.389

Sequence	shrunken log2 fold change
RRIRHRPPRLPRPRPRPDCFPRP	0.3
RRIRPRPPRLPRPRPRPHASPRP	-0.192
RRIRHRPPRLPRPRPRPFFMPRP	-0.564
RRIRERPPRLPRPRPRPEGFPRP	-0.00351
RRIRYRPPRLPRPRPRPSHVPRP	-1.58
RRIRTRPPRLPRPRPRPTAMPRP	0.301
RRIRVRPPRLPRPRPRPSTDPRP	-0.0464
RRIRQRPPRLPRPRPRPCMYPRP	-0.166
RRIRARPPRLPRPRPRPAHVPRP	0.0804
RRIRCRPPRLPRPRPRPTDLPRP	0.0853
RRIRTRPPRLPRPRPRPQKMPRP	0.176
RRIRARPPRLPRPRPRPGTDPRP	0.565
RRIRTRPPRLPRPRPRPTCMPRP	-0.262
RRIRARPPRLPRPRPRPTLEPRP	0.388
RRIRVRPPRLPRPRPRPAGQPRP	0.375
RRIRNRPPRLPRPRPRPHWRPRP	0.201
RRIRKRPPRLPRPRPRPHQGPRP	0.0968
RRIRSRPPRLPRPRPRPCCAPRP	0.115
RRIRIRPPRLPRPRPRPAIEPRP	-0.0797
RRIRMRPPRLPRPRPRPLLMPRP	0.205

Sequence	shrunken log2 fold change
RRIRKRPPRLPRPRPRPTYEPRP	0.367
RRIRDRPPRLPRPRPRPPQEPRP	0.559
RRIRIRPPRLPRPRPRPTEDPRP	0.267
RRIRPRPPRLPRPRPRPAPVPRP	0.409
RRIRGRPPRLPRPRPRPVNKPRP	0.0892
RRIRTRPPRLPRPRPRPLQEPRP	0.0814
RRIRHRPPRLPRPRPRPWNRPRP	-0.297
RRIRGRPPRLPRPRPRPNALPRP	0.474
RRIRARPPRLPRPRPRPRMNPRP	0.183
RRIRERPPRLPRPRPRPVESPRP	-0.0262
RRIRQRPPRLPRPRPRPVKLPRP	-0.0467
RRIRWRPPRLPRPRPRPGWLPRP	0.375
RRIRRRPPRLPRPRPRPVAYPRP	0.263
RRIRQRPPRLPRPRPRPDRYPRP	0.0513
RRIRKRPPRLPRPRPRPLMNPRP	0.158
RRIRKRPPRLPRPRPRPTVFPRP	0.0385
RRIRTRPPRLPRPRPRPGHDPRP	-0.108
RRIRARPPRLPRPRPRPWFRPRP	0.133
RRIRSRPPRLPRPRPRPSQFPRP	-0.345
RRIRSRPPRLPRPRPRPLIAPRP	0.0475

Source: the supplement of paper PMC9112550, “Optimization of the antimicrobial peptide Bac7 by deep mutational scanning” (BMC Biology, 2022)
